Assays:
[1] = system: Cy7-NH-e9-c(S-Peg12) oPPRSFL-r9-c(Cy5)-CONH2 (10, RACPPPPRSFL)
[2] = system: Cy7-NH-e9-c(S-Peg12)oPLGC(Me)AG-r9-c(Cy5)-CONH2 (20, RACPPPLGC(Me)AG)
[3] = system: Cy7-NH-e9-c(S-Peg12) oDPRSFL-r9-c(Cy5)-CONH2 (5, RACPPDPRSFL)
Sequence of Cy7-NH-e9-c(S-Peg12) oDPRSFL-r9-c(Cy5)-CONH2 (5, RACPPDPRSFL) (chain, as listed by the source): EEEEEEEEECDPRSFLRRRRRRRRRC

Sequence of RACPP1 (chain, as listed by the source): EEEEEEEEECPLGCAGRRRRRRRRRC
Sequence of MMP-9 (chain, as listed by the source): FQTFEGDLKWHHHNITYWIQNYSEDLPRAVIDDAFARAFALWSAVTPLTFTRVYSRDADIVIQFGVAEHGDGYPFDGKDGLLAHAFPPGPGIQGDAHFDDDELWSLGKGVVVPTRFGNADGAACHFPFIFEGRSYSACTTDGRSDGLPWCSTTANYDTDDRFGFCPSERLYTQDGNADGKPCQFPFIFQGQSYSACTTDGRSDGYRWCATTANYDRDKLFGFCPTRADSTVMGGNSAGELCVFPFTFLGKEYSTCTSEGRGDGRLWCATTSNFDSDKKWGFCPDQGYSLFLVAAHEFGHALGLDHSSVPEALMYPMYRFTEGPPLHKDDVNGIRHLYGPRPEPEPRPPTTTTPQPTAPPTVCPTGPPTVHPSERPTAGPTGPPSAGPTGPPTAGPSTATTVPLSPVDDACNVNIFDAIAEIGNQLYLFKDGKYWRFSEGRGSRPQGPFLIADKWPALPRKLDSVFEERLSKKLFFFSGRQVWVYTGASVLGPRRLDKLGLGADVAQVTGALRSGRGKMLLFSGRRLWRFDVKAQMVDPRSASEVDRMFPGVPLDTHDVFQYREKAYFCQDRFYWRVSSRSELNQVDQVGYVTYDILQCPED
Sequence of Cy7-NH-e9-c(S-Peg12) oPPRSFL-r9-c(Cy5)-CONH2 (10, RACPPPPRSFL) (chain, as listed by the source): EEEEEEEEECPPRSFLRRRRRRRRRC
Sequence of RACPP2 (chain, as listed by the source): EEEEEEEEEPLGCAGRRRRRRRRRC

| Substance | decrease in Cy7 re-emission on cleavage, in mouse plasma (RACPP1) | extent of cleavage (RACPP1) | increase in Cy5 emission on cleavage, in mouse plasma (RACPP1) | increase in the ratio of 670/780 nm emissions on cleavage (RACPP1) | fraction of peptide cleaved, HPLC (FRET-ACPP 2) | increase of the Cy5 peak, extrapolated to 100% cleavage (FRET-ACPP 2) | peptide cleavage, tricine SDS-PAGE with Cy5 and Cy7 imaging (RACPP2) | change in Cy5/Cy7 emission ratio on cleavage, in plasma [1] | decrease in Cy7 re-emission on cleavage, in plasma [1] | increase in Cy5 emission on cleavage, in plasma [1] | kcat/Km [1] | peptide cleavage, SDS-PAGE with Cy5/Cy7 ratio imaging [1] | peptide cleavage, SDS-PAGE with Cy5/Cy7 ratio imaging [2] | kcat/Km [3] | peptide cleavage, SDS-PAGE with Cy5/Cy7 ratio imaging [3] | kcat/Km (cleavage activity) [1] |
| --- | --- | --- | --- | --- | --- | --- | --- | --- | --- | --- | --- | --- | --- | --- | --- | --- |
| MMP-9 | decreased Cy7 re-emission by ˜4 fold | after (red dashed curve)>95% complete cleavage with MMP-9 | increased Cy5 emission by ˜10 fold | net 40-fold increase in the ratio of 670/780 nm emissions | 87% of the peptide had been cleaved | the Cy5 peak increases about 7 fold | All three components (intact uncleaved peptide, r9 and e9 fragments) are well separated and can be seen as distinct bands in the gel |  |  |  |  |  |  |  |  |  |
| thrombin |  |  |  |  |  |  |  | 34 fold change in Cy5/Cy7 emission ratio | 3.8 fold decrease in Cy7 re-emission | 8.8 fold increase in Cy5 emission | 7300 M⁻¹ s⁻¹ | cleaved by thrombin in a time dependent manner and that RACPPPPRSFL(10) is selective for thrombin | not cleaved by any of the pro-coagulation enzymes | kcat/km=1.2×10^4 M^-1s^-1 | cleaved by thrombin in a time dependent manner |  |
| factor Xa |  |  |  |  |  |  |  |  |  |  |  |  | not cleaved by any of the pro-coagulation enzymes | 6200 M⁻¹ s⁻¹ |  | no detectable activity towards RACPPPPRSFL |

— patent publication US20130078188
